Measured values: the supplement of paper PMC10567573
± gives the standard deviation.

Test: protein stability index of a GFP-peptide fusion (GPS, HEK-293T) (PSI 1-6); higher = more stable
[1] = treatment: DMSO, c terminus: a fixed tail appended
[2] = treatment: MLN4924 1 uM, 8 h, c terminus: a fixed tail appended
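Further: 24-mer peptide tiles fused after GFP, lentivirally expressed, FACS-sorted into six equal bins by GFP/DsRed ratio, decoded by Illumina sequencing, PSI is the read-weighted mean bin number.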

Sequence	protein stability index [1]	protein stability index [2]	protein stability index (treatment: DMSO, c terminus: native)	protein stability index (treatment: MLN4924 1 uM, 8 h, c terminus: native)
LNKELNENQLVRKQDVLGPSTTPP [SASS6]	5 ± 0.2	5.1 ± 0.071		
LNQVADLLEQSLEEFAQAESKDQG [ALDH8A1]	5.18 ± 0.14	5.21 ± 0.53		
LNRSESDIRYLLGYVSQQGGQRST [FEM1B]	3.73 ± 0.19	3.59 ± 0.33		
LNYLVDPVTICCGHSFCRPCLCLS [TRIM43]	2.26 ± 0.34	2.42 ± 0.23		
LPAEARERSRGRSISRGRHARTHP [MATN2]	5.05 ± 0.5	5.17 ± 0.23		
LPDGCQPLQLLREMRQALQALLKE [CBY2]	2.45 ± 0.35	2.51 ± 0.33		
LPGRKLVSSAVSPSIIPQEDPSQQ [INTS4]	5.12 ± 0.12	5.02 ± 0.32		
LPGWEDIESKIPLNMEEPPVEEPE [SLC19A2]	5.51 ± 0.32	5.24 ± 0.23		
LPTDGSTGVELAPRSAEPGYLVTK [PCDHGA10]	4.52 ± 0.17	4.66 ± 0.15		
LPVSSPEPPPALPPAADAPVTQIG [TRIM55]	5.23 ± 0.13	5.33 ± 0.12		
LPYLEHVGHNHTYNMAPSALDSAD [NFE2L1]	4.42 ± 0.15	4.44 ± 0.11		
LQFLYTGQLDEKEKDLVGLAQIAE [RHOBTB1]	2.38 ± 0.29	2.83 ± 0.25		
LQLAIPRENAQISLDGDVTFFGAL [TNFSF13B]	2.1 ± 0.32	2.17 ± 0.36		
LQNEVRQLTEKLARVNENLARKIA [SSNA1]	2.27 ± 0.29	2.2 ± 0.29		
LQRVPSYDSFDSEDYPAALPNHKP [ETS1]	4.45 ± 0.18	4.53 ± 0.17		
LQSCGDLHTFTPAGRPRAERRPRR [FAM189A2]	4.95 ± 0.27	5.07 ± 0.23		
LRDIRAQYESIAAKNLQEAEEWYK [PRPH]	4.24 ± 0.24	4.33 ± 0.41		
LREAEIARIRDEEAQRASFLQNAV [LRRC45]	4.37 ± 0.18	4.43 ± 0.27		
LREERKKAKKNKDKYVGVSSDSVG [CLINT1]	4.95 ± 0.17	5.09 ± 0.15		
LRKYSFDGLDLDWEYPGSQGSPAV [CHIT1]	2.32 ± 0.23	2.61 ± 0.38		
LRRQKSLRLEWETQQELRKIREKE [IQUB]	3.94 ± 0.28	4.02 ± 0.091		
LRRVLDELTLSKTDLEMQIESLNE [KRT13]	3.12 ± 0.098	2.98 ± 0.068		

Sequence	protein stability index [1]	protein stability index [2]	protein stability index (treatment: DMSO, c terminus: native)	protein stability index (treatment: MLN4924 1 uM, 8 h, c terminus: native)
LRRWLRANLAASGGYAIAVVLLQG [TSPAN10]	2.43 ± 0.68	2.35 ± 0.075		
LRVEFAAENYLSGGGPGDGGGADT [FBXO33]	4.16 ± 0.18	4.13 ± 0.26		
LRVSPDGTAFCSGSWDHTLRVWA [GNB5]			2.95 ± 0.33	2.77 ± 0.77
LRYVNSTRAPQRAHEVLQELRDIS [FBXO28]	3.09 ± 0.21	3.35 ± 0.28		
LSHSPQEDWVLLGMANGQQWLQST [TLE6]	2.57 ± 0.3	2.52 ± 0.26		
LSLASLLVYVAAFSIGLGPMPWLV [SLC2A12]	2.93 ± 0.37	2.79 ± 0.68		
LSLIGVRVDVDTYLTSQLPPLREI [NFE2L1]	3.12 ± 1.1	2.57 ± 0.58		
LSQAPAEGPDLVPAALGSLTTAQI [HES6]	4.35 ± 0.32	4.36 ± 0.61		
LSSSEGLEPGSADPLANGCQGVSE [PSD2]	5.39 ± 0.24	5.49 ± 0.12		
LSTFSVPYFLFQHWATGYSKSSHP [SOAT1]	2.11 ± 0.4	2.56 ± 0.79		
LTQRQVNITVQKKVSQWWERLTKQ [HACD3]	2.55 ± 0.33	2.81 ± 0.24		
LTRPVPAGADLPPPKIRLKPHRLG [PWWP2B]	3.91 ± 0.29	3.73 ± 0.21		
LTYGEVRNSKASAYCLDQGAEDGD [GALNT9]	5.37 ± 0.29	5.3 ± 0.29		
LTYINEDRISTTFRLTTLLMSGCS [PLK2]	2.74 ± 0.63	2.56 ± 0.45		
LVARFLEQSSCTMTPDIHELVENI [FAM189A2]	2.54 ± 0.55	2.37 ± 0.4		
LVEAGAHTDMTNKQNKTPLDKSTT [FEM1B]	5.34 ± 0.29	5.27 ± 0.21		
LVLLRQMLLELTRRGQEPLSALLQ [BCL2L13]	2.37 ± 0.22	2.62 ± 0.48		
LVVQIDNAKLAADDFRTKYQTEQS [KRT33B]	3.18 ± 0.19	3.36 ± 0.16		
LYPSLNVTSFDSVVPEKLDDLVPK [ALG2]	4.32 ± 0.14	4.42 ± 0.11		
LYVVGGQSNYDTKGKTAVDTVFRF [KLHL13]	2.5 ± 0.2	1.98 ± 0.31		
MAAADAEAVPARGEPQQDCCVKTE [EHMT1]	5.63 ± 0.21	5.53 ± 0.11		
MAEQSDEAVKYYTLEEIQKHNHSK [CYB5A]	5.31 ± 0.24	5.28 ± 0.19		
